In paper PMC6535076, “Poly(ADP-ribosyl)ation and DNA repair synthesis in the extracts of naked mole rat, mouse, and human cells”:

B1: Pho-dRP (dsDNA)
DNA 1: GGCGACTAAGCCGGGC
DNA 2: AACGCCAGGGCCTCCC
DNA 3: GGGAGGCCCTGGCGTTGCCCGGCTTAGTCGCC
modifications: strand 1 3'-terminal C is FAP-dCMP (photoreactive exo-N-substituted dC); strand 2 carries 5'-dRP (phosphate-linked, from Ung-treated 5'-pU)
B2: Pho-Flap (dsDNA)
DNA 1: GGCGACTAAGCCGGGC
DNA 2: GATAACAACGCCAGGGCCTCCC
DNA 3: B1 DNA 3
modifications: strand 1 3'-terminal C is FAP-dCMP

Legend:
PARP2 = PARP2 (mouse (murine), UniProt O88554 1-559); test: photoaffinity crosslinking; 100 nM protein, 100 nM DNA, EDTA; UV photo-crosslinking, 100 nM 5'-32P photoreactive DNA, EDTA present, Pol beta carried over from probe synthesis, SDS-PAGE; binding buffer, pH and temperature not given in the material; conditions: protein: recombinant; label: 5'-32P on strand 1; nicked duplex of 3 strands (upstream, downstream, template), blunt outer ends, 5'-dRP at nick
PARP1 = PARP1 (human, UniProt P09874 1-1014); test: as above; conditions: protein: recombinant; label: 5'-32P on strand 1; nicked duplex of 3 strands (upstream, downstream, template), blunt outer ends, 5'-dRP at nick
HMGB1 = HMGB1 (calf (thymus), UniProt P10103 2-215); test: photoaffinity crosslinking; 300 nM protein, 100 nM DNA, EDTA; more efficient than other DNAs; UV photo-crosslinking, 100 nM 5'-32P photoreactive DNA, EDTA present, Pol beta carried over from probe synthesis, SDS-PAGE; binding buffer, pH and temperature not given in the material; conditions: protein: native; label: 5'-32P on strand 1; nicked duplex of 3 strands, blunt outer ends, 6-nt 5' single-stranded flap (GATAAC) at nick
Chain of HMGB1 (P10103 2-215): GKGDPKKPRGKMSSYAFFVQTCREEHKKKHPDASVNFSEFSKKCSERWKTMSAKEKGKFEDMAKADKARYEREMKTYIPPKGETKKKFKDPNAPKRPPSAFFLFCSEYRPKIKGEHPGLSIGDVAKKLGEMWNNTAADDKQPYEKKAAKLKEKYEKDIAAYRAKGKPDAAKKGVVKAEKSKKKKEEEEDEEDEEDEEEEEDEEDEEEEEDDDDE

Chain of PARP2 (O88554 whole entry): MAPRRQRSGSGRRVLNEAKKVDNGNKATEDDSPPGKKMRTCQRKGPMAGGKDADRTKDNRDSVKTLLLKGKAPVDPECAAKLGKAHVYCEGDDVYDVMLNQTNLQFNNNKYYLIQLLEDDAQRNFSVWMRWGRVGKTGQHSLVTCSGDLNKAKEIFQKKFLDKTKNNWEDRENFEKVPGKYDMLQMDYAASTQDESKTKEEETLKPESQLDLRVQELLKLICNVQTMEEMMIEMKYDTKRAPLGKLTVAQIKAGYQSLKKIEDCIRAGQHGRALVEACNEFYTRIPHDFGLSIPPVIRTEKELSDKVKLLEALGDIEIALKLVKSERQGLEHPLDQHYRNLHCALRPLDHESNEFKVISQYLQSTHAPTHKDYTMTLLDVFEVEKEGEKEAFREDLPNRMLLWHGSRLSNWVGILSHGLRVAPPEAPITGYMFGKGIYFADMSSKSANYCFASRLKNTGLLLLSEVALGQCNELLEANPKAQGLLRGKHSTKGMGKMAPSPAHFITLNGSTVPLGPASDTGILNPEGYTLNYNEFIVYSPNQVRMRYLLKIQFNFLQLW
Chain of PARP1 (P09874 whole entry): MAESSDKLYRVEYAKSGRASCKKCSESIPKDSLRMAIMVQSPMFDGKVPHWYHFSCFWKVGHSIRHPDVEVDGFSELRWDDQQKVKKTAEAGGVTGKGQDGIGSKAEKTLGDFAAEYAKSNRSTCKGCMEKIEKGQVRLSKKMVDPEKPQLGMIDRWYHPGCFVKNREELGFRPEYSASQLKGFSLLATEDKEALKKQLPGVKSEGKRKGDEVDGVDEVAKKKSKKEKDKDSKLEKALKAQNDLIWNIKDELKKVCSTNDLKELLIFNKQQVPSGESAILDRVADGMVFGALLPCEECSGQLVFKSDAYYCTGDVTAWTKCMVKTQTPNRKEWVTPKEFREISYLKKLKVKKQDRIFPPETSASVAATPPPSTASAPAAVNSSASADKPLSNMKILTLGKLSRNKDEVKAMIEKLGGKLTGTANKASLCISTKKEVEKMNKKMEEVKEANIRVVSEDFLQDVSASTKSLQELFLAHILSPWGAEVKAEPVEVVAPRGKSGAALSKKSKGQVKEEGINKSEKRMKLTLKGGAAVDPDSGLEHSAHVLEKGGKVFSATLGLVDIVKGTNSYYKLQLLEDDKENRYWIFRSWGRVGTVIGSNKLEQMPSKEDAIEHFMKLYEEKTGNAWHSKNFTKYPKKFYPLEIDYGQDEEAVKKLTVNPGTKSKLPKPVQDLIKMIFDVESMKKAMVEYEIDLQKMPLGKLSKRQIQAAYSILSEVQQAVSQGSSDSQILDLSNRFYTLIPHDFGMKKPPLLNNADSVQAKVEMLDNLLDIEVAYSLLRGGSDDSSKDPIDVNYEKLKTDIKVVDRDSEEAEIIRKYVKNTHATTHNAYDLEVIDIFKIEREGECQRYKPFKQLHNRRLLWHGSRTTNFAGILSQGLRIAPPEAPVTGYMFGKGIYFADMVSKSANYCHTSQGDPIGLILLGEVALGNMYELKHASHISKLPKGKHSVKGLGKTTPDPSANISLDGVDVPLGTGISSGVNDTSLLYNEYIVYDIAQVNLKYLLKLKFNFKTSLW

| Binder | binding result (PARP2) | binding result (PARP1) | binding result (HMGB1) |
| --- | --- | --- | --- |
| B1 | binds | binds |  |
| B2 |  |  | binds |
